Earlier results in article PMC3903589.

Legend:
[1] = biological target: CEACAM1 (UniProt P13688); test: SPR
[2] = biological target: NCAM (UniProt P13591); test: SPR

| Substance | Kd [1] [µM] | Kd [2] [µM] |
| --- | --- | --- |
| CEACAM1 (from UniProt P13688) | 7.65 | – |
| NCAM (from UniProt P13591) | – | 0.025 |
